Experimental data reported in article PMC12494564, “CLIC5A binds to and stabilizes the open and active conformation of ezrin” (The Journal of Biological Chemistry, 2025).

Biological target: GST-His6x-CLIC5A (human, UniProt Q9NZA1-2 1-251, fluorescent label from the Monolith His-Tag Labeling Kit RED-tris-nitriloacetic acid)
Experiment: MST; 100 nM fluorescently labeled (RED-tris-NTA) GST-His6x-CLIC5A or GST-His6x, unlabeled ezrin_(482-586) from 412 μM to 12.6 nM in the labeling buffer; Monolith NT.115, ambient temperature, 40% MST power, 30% LED power
Details: both partners purified

Chain of GST-His6x-CLIC5A (Q9NZA1 other isoform, or with tags, fused parts or gaps): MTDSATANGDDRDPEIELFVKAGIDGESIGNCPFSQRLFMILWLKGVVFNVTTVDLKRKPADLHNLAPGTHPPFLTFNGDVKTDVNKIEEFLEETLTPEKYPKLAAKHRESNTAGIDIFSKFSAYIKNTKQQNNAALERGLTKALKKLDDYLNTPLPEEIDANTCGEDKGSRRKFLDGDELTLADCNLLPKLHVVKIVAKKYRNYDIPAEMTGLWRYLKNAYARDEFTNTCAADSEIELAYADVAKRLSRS

- Kd: 29 µM
B1: ezrin_(482-586) (H549N/T567E) (domain or fragment, human, UniProt P15311 482-586, looked up)
chain: SYHVQESLQDEGAEPTGYSAELSSEGIRDDRNEEKRITEAEKNERVQRQLLTLSSELSQARDENKRTNNDIIHNENMRQGRDKYKELRQIRQGNTKQRIDEFEAL
notes: ezrin, human; Expression plasmid created by ATUM; not shown: PagP, N-terminal, cleaved
